The record followed here is doi:10.1101/2023.05.02.539157, “Toxic anti-phage defense proteins inhibited by intragenic antitoxin proteins” (bioRxiv, 2023).

Data set [1] deals with T1, RpnAL* (RpnA_(K240R+E241D+M244L)) (E. coli, UniProt P31667 1-292, K240R | E241D | M244L).
T1 construct: source: E. coli, overexpressed as C-terminally tagged intein fusion protein, purified
T1 sequence (looked up): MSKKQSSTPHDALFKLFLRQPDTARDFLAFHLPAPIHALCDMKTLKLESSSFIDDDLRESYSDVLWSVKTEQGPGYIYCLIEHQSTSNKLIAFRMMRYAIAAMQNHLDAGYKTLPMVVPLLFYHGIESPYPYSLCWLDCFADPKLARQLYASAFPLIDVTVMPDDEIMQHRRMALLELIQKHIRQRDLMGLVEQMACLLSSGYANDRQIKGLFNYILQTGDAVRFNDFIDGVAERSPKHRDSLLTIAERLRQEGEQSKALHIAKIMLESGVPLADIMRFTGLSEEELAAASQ
As to the kind of experiment: SEC; Superdex 200 column; individually purified proteins alone and mixed, and the native co-purified RpnALS complex; peak fractions checked by SDS-PAGE. As to conditions: both partners purified. (SEC sorts molecules by how far they enter the pores of the column.)

In data set [2] the target is T2, RpnAL (full-length RpnA, wild type, in the native RpnALS complex) (E. coli, UniProt P31667 1-292).
T2 construct: source: E. coli, WT rpnA gene in an overexpression vector, C-terminally tagged intein fusion, purified together with RpnAS
T2 sequence (looked up): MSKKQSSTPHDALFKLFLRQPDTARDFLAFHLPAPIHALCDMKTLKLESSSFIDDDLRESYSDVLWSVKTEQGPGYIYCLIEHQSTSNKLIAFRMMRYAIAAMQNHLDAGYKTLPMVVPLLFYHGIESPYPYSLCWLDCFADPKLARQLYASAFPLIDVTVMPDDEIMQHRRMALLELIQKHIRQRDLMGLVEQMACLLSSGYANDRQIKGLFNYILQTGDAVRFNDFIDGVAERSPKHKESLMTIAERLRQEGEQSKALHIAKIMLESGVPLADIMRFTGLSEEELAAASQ
The data set can be described thus: SEC-MALS; multi-angle light scattering coupled with size exclusion chromatography of purified RpnAS and of the purified RpnALS complex. The conditions noted are these: both partners purified.

Data set [3] deals with the molecule itself. The description is as above.

B1: RpnAS (natural protein, E. coli, UniProt P31667 244-292, looked up)
chain: MTIAERLRQEGEQSKALHIAKIMLESGVPLADIMRFTGLSEEELAAASQ
notes: also called RpnS of RpnA; small C-terminal protein of RpnA
The term stoichiometry N denotes a count of units in the complex or per binding partner. In the case of B1, the binding result in data set [1] is “binds”. Moreover, the “stoichiometry N” value in data set [2] was 1 RpnAS per RpnAL (2:2); in data set [3] it was 2.
